Measurements from the DeepSol protein solubility set.

assay: soluble on expression in E. coli; label from the status in PepcDB or PDB records

Row | Sequence | soluble on expression in E. coli
1 | MSLKNIFSVLEERVERTPDDNLVEYKNAQGEWAAFTAAEFKNKVVALAKGLIARGVMPGDSVSIIAHTCWQWTALDVAIMSIGALTVPVYETNSPAQVKMIFNDANVKMAFAEDDFQRDKIESVRDQCPDLGDVYVIGLGAIDTIIEYGRAVSDAEFLEREQAVKGSDLATIVYTSGSTGTPKGVELTHANFVFITYSGVNSMPDIAMKPNRRLLLFLPLAHVFARYMQFFCFAGNVSLGLSSNLKTILADFKAFKPTFILAVPRIFEKIYNAASQKAGAGFKGRVFADATQTACDWSHAQQSGGSIPLALNAKHALYNKLVYSSIMEVFGGHVEYAVSGGAPLDSSIAHFFNGVGLSLLEGYGMTETCAPSSVNPTEGYKIGTIGLPLQGVTMGVDEEGELCIKSPAVCAGYHNNPDVTKQQIVDGWLHTGDLGSIDDDGFVSIVGRKKDLIITAGGKNVSPCEMEASIMTSPVVSQCVMIGDRKPFIAAIISLDLAETNLWLESKGAEQVADLDEASKNPIVRAEVERAVNKANELASRAESIRKFEIVPDEFTEENGLVTPSMKARRQAVVEHYRTLIDKEGHHHHHH | not soluble
2 | MSLKPQVYHVDAFTSQPFRGNSAGVVFPADNLSEAQMQLIARELGHSETAFLLHSDDSDVRIRYFTPTVEVPICGHATVAAHYVRAKVLGLGNCTIWQTSLAGKHRVTIEKHNDDYRISLEQGTPGFEPPLEGETRAAIINALHLTEDDILPGLPIQVATTGHSKVMIPLKPEVDIDALSPDLNALTAISKKIGCNGFFPFQIRPGKNETDGRMFSPAIGIVEDPVTGNANGPMGAWLVHHNVLPHDGNVLRVKGHQGRALGRDGMIEVTVTIRDNQPEKVTISGTAVILFHAEWAIELEGGSHHHHHH | soluble
3 | MSLKQRPNVLLIVLDTARARTVLPGLESGLMPTLSRIASDGTTFTDATATAPWTLPSHAGMFTGKYTSSHGVHAGNHIFDPDSEPLASRISNAGYRTAGISGNVWISPEFGFDAGFDEFSMKWDLFWDAPELSSVISNRNTTATGDTILDVFRGQGPVDLLKGTLTTGYAKFLAERHDDGAHHTTSRTVEWLEQNGTEDDPFFYFLNYVEPHLPYEPPAPFLDEYLPDGADPSRVSDLNQDPWQYVAGDQELTDADVEIFKGLYEAELAYLDTQLERLYDTLAEQCILDETAIILVGDHGENIGEHGLMDHQYCLYETLIHVPLVIRYPELFDEEEVSGPVELRDLYPTVTDLAGAEQPADTDVSTHSLVPRDGTVPVRDRAIAEYLVPQPSMDSLREAVESFDEAATRFDRPLRAIKTTDWKFIEAPDDTELYDRDDDPIEWIDVASIHPDICELLGTDLRDELGRLARGTSDSNTISANKKERLEDLGYLQ | not soluble
4 | MSLKQYETIILHRHVRPDPDAYGSQMGLAEIIRASFPEKKVYSVGNDEKSLQFLGIVDEITDEIYKDALVIVCDTANQERISDGRFNLGKALIKIDHHPNDDAYGDLLWVDTTASSCSEMIVAFWEMFSDELILNETAARLLYAGIVGDTGRFLYPSTTEETLRLSAHLVTFPFDRPALYRELYELPKNTVKLSGYILQNFVMDENGAATVYLSDTLLNEFEVDPRDASALVSCIENVKGIKAWIMFIQEGPVFRARLRSKGPVINELAKEYGGGGHPLASGATLHNEEEIKEMTAKLQRIEGHHHHHH | not soluble
5 | MSLKREIILYKSISTDLLEQLKNRFIVHQHQLKSEMDDSFFSDLQRVEGIIGSKLRVDGHLLDQAPHLKIVTNISVGYDNLEIEELTKRGIMATNTPDVLTDTVADTVFGLLLATSRRICELDQYVKLGRWDENIGEHLFGVDVHHKTLGIIGMGRIGLAVAERAHYGFKMKIVYHNRSTHSYAEKNINATYASLEELLTVSDFVLVMAPLVPETVKLIGEKEFDLMKETAIFLNGSRGELVDELALIHALQSKKIWGAGLDVYEQEPISKESLLLQLKNVVTLPHIGSATRETRYKMAKLAVDNLMKGFTGEVPPSLINPDVLTDEGHHHHHH | not soluble
6 | MSLKRNNVNVVNRTKNSNPEFRIPLHYKHKIPFVLSDAIERNHDQDLTAEVHFYLALPPERCRRIYKSRRKALNAMLRAILYHVNVISKQVPISATMLTEYCGLTTISAAGNKSVTRGTRTLAMLRDLGFITYRQCWDRVSRRYFPSAIAVTERLIDLVGICPERWRTELNNKLANYNHKIFKKEGITLNEYDYARNLREDQLKRSYMYHSNRKEIKKKKKEATRLEKLVKIKGENELRHLISRQVSEEFLKGFIPGAQLKDLKKIVDKRINTLKKIAKSLHEGHHHHHH | not soluble
7 | MSLKSTDIKIVEAKFSTEEVPFRTPLKFGGRVMDSSVLLNVEVIVETRNGKQGIGIGSMPAGNIWAWPSAVVSPEDSLKAMIEFLKEAVEIANICPEVAHPIDLMYHISAEYHFMAKKLSKRLGLAEEIPELAQLVASSPLDAAIHDGFGRANHINSYNGLSAEYMSHDLTEYLDDQFKGEYLDQYTLRDPKPTLPLYHLVGALDPITEADISERVDDGLPETLGEWIKADGLTHLKIKLSGDNMDWDISRVIAVENEAVKAQGERGQDKWVYSLDFNEKCENVDYVLDFLNKIREQTPAAFDRVQYIEQPTNRDLKANPENKMHEAAKIKPVVIDESLVDYESLLLSRELGYSGVALKACKGQTESLFLGAAAQKFDMFLCVQDLTCCGYSFLHSASLAARIPSIAAIEGNGRQYCPGPNKKWKRSYPGMFNITDGTVKTSEGHHHHHH | not soluble
8 | MSLKTKLIVVLGPTAVGKTALGIKLAQQFHGEIISGDSQQVYRKLDIGTAKATAAEQAAVPHHLIDVREVDENYSAFDFVQEATKEIANICARGYLPIIVGGTGLYLQSLLEGYHLGGQVDHEAVLAYRRELETLSDTELSQLVETKQIVMTEPNRRRLMRSLELHKFSQGVQNQGSPYDVLLIGLNDNRQDLYERINARVDKMMAAGLLDEAKWLYDNYPHAQATRGIGYKELFPYFAGDIGLEEAVEKIKQNTRRFAKRQLTWFKNRMAVSFYSVSDSDYKGKINQAVVDFLRNEGHHHHHH | soluble
9 | MSLKTYKGYLIDLDGTMYNGTEKIEEACEFVRTLKDRGVPYLFVTNNSSRTPKQVADKLVSFDIPATEEQVFTTSMATAQHIAQQKKDASVYVIGEEGIRQAIEENGLTFGGENADFVVVGIDRSITYEKFAVGCLAIRNGARFISTNGDIAIPTERGLLPGNGSLTSVLTVSTGVQPVFIGKPESIIMEQAMRVLGTDVSETLMVGDNYATDIMAGINAGMDTLLVHTGVTKREHMTDDMEKPTHAIDSLTEWIPYIEGHHHHHH | soluble
10 | MSLKVYVVKKGYRPGIYHSWPEAEEQVKGFPGAEYKSFSNIMEALDYQQMDPEDALKALQGAEDKLQAAIAKVRQGGSKKKQAESQKEFAASSKYAAHIFTDGGCRNNGTHKGGHVQADDKAAWAYLIEYGGQKLSASGGRFGATNNEMEMTAFLESLKKLEELGLNDQPLLFSLDSQYVIKAVSDNDQGPAWIKGWQRRGWKKADGSPVANRELWQEIAKEMAKFAQPEFEWVKGHANSAGNNFVDGLLNKYMDQEGHHHHHH | soluble
11 | MSLLADLVNLDISDNSEKIIAEYIWVGGSGMDMRSKARTLPGPVTDPSKLPKWNYDGSSTGQAPGQDSEVILYPQAIFKDPFRRGNNILVMCDAYTPAGEPIPTNKRHAAAEIFANPDVIAEVPWYGIEQEYTLLQKDVNWPLGWPIGGFPGPQGPYYCSIGADKSFGRDIVDAHYKASLYAGINISGINGEVMPGQWEFQVGPSVGISAADEIWIARYILERITEIAGVVVSFDPKPIPGDWNGAGAHTNYSTKSMREEGGYEIIKKAIEKLGLRHKEHISAYGEGNERRLTGHHETADINTFLWGVANRGASIRVGRDTEKEGKGYFEDRRPASNMDPYVVTSMIAETTLLWNP | soluble
12 | MSLLDIIFPPNNNDDDFYGQHFSLIDSIIVKVAQDSNLSQSLRVYQYLYSWRLFGCMVAVVNNNKTLELGDKRGAIEALYEFITRFRIENPTGDVERKVKLKILEIYMIILNLLKSFENNQDQWFLKTNSYKETTTTRRRSIVSLNDLKLEYLEWLKNLDEDVSMFTEGHHHHHH | not soluble
13 | MSLLFASLLKNRLRLGQLTMIDAKGQTHVLGGDGPGPRVTIRLTDPSLHRRLFLRPHLAIGEAYMEGTLIIERGGLRDFLELIGANLAAIEGSPWVALGQRLSGLMRRLQQRNPVWRSRRNVAHHYDLSGAFYDLFLDSDRQYSCAYFARDGDSLEQAQDNKKRLIAAKLMLRPGQHVLDIGCGWGGLALHLARHHDVRVTGITLSQEQAALARERVRAAGLQDRVTILLKDYRDLDGRFDRVVSVGMLEHVGAPQLADYFRHVGGLLSDDGVALIHSIGRMEPPGSTNVWIRKYIFPGGYSPALSETLAAVEGSGLYLTDAEILRLHYARTLAEWTRRFQANREAARALYDERFCRMWEFYLLGCEMAFRHGNQMVFQLQLARREGHHHHHH | soluble
14 | MSLLFIFVVQSFAALSVEELTWDNGDTLLKFLQRNSIPMSLYYGLDREDQELASDIAYKIKYQVLKDENNNIEQVLIPISDDLQIHIYKDKDGQYTLAFTPVSYQKEDRILHLTIKSSAYQDVYEESGSSTLARAMVRAFRGSINFRNIQKGDEVTLYYEQKRRMGKLWGDINIKMAMVEINKSAREVFSYNDIFYDRDGKELESFLLTKPVNYTRISSPFTTARYHPILKRYRAHLGIDYAAPTGTPVKSAGKGVVTFIGTKGGYGNVIQIKHDSGYMTLYAHLSRFAKIKNGQKVNQGQVIAYVGSTGMSTGPHLHFGVYLNNKAINPASVVKIAKSELSGKAKENFKHIIAGYEQVVKEALASNQPNPPKEEDFENYIEGHHHHHH | soluble
15 | MSLLILIGWQIQVRQPSDYIMNKTEFYADLNRDFNALMAGETSFLATLANTSALLYERLTDINWAGFYLLEDDTLVLGPFQGKIACVRIPVGRGVCGTAVARNQVQRIEDVHVFDGHIACDAASNSEIVLPLVVKNQIIGVLDIDSTVFGRFTDEDEQGLRQLVAQLEKVLATTDYKKFFASVAGEGGSHHHHHH | soluble
16 | MSLLPKELLDVRRAKGRIFPKFADERDYELAEKVIEIFKKGLGKKYGNLMKQARKLENAKNFKKVRGFIRVLENHCIEKSCAFDVDSELEPRKVRMLLFEHGFVTSKKERDRVLEYVARYFSTTPETVERAMYADREEELILTKFRPLTPDNLIKLYNLSLLQTTLFNALRLTFWASDRHKEIFRSIKRLGLMYELYEDSGRLMVEVTGAATLLKMTRKYGVSFAKLIPWILRAKNWFIRAEISDFDRLYIMEIDDRIRDLFPDVEERLSYDSTLEEEFARKMQMLGYEVEREPDVVKAGKYAFIPDFAVNLGDKKVYIEIAGFWTDEYLRKKAEKIKSSSIPLILIAREDFGDGGANVKDVILFSRKIPYGEVIKALKRYKPEKKVEGDVVELENFAEVPSEYVIAGKYAVRREIFEEIKREIEVSNPSTLEDIKAILKKYGLGESAIRAFGYRVRWIGLGEAVIERTDEGHHHHHH | not soluble
17 | MSLMASAVAEENAERSKEGFIEGSEVNLLLRNFYFNRDFRKGQSSPAGGGYTEEWVQGFMANFSSGFTQGTLGVGIDAFAQLGVRLDSGGGRSGAGGSVDLLPYDDQGRPQDDYSRAGGAVKLRWYGTVLRVGDVFPETPVIQYGNSRLFPSSFRGFTLVNDSLAKGLTLQAGKLNSMTQPNSTSGSDDFYSFYTGRRIDSPWVAYAGGDYQATEHWSVSLYGSRQKDAWDQYYAGTSFNYPLDDKLSLLGGANYYKVKDQGRQVMGELDNDIWSVRGGFAYGPHQVLLSYQRNNGDDDFDYLRQTDSIYLDNSIQYSDFNSPKERSLMLRYDLDMAAFGVPGLSFMTRYGKGWDADYSNANSVYMRTDANGNPLTNQGRWERDVEVKYVVQGGAAKDLAFRVRQATVRSDSFESDLDEVRLIVEYPLQVLEGHHHHHH | not soluble
